Measured values: patent US20220145339A1, “METHOD FOR PREPARATION OF PRIMARY AMINE COMPOUNDS” (Max-Planck-Gesellschaft zur Förderung der Wissenschaften …, priority 2018, published 2022)

Key:
[1] = aqueous solution, hydrolyzes to oxaloacetate; calculated from data of Mortarino et al., 1996; cited from earlier work
[2] = biological target: the molecule itself; test: X-ray crystal structure, self-association (homodimer)
[3] = ISRed enzyme assay coupled with BHAD, NADH oxidation followed at 340 nm; assay type: biochemical, Paracoccus denitrificans DSM 413
Experimental: The enzyme assay to generate aspartate from β-hydroxyaspartate (catalyzed by the BHAD and ISRed enzymes) was performed at 30° C. in a total volume of 300 μl. The reaction mixture contained 100 mM potassium phosphate pH 7.5, 1 mM BHA, 0.2 mM NADH, 0.57, 2.85, 5.7 or 11.4 μg BHAD enzyme and 0.57 μg ISRed enzyme. The oxidation of NADH was followed at 340 nm on a Cary 60 UV-Vis photospectrometer (Agilent) in quartz cuvettes with a pathlength of 10 mm (Hellma Analytics). BHA (=(2R,3S)-β-hydroxyaspartate) was custom-synthesized by the company NewChem (Newcastle upon Tyne, United Kingdom), and was determined to be >95% pure by NMR analysis.
The enzyme assay to determine the initial reaction velocity of the ISRed enzymes was performed by incubating BHA and the required cofactor NADH together with a fixed amount of the ISRed enzyme and varying amounts of the BHAD enzyme. The initial velocity depends on the amount of the BHAD enzyme present in the reaction mixture, and therefore on the amount of iminosuccinate that is produced by the BHAD enzyme and is available to the ISRed enzyme, as illustrated in FIG. 6. The initial reaction velocity of the ISRed enzyme approaches a maximum in a Michaelis-Menten kinetic fit. The preliminary vmax of the ISRed enzyme determined by this method is 270±10 U mg^−1.

Molecule: N=C(CC(=O)O)C(=O)O [iminosuccinate]
- t1/2 [1]: 1.48 s

B1: iminosuccinate reductase from Paracoccus denitrificans DSM 413 (enzyme)
chain: MLVVAEKEIAGLMTPEAAFEAIEAVFASMARRKAYNFPVVREAIGHEDALYGFKGGFDASALVLGLKAGGYWPNNQKHNLINHQSTVFLFDPDTGRVSAAVGGNLLTALRTAAASAVSIKYLAPKGAKVLGMIGAGHQSAFQMRAAANVHRFEKVIGWNPHPEMLSRLADTAAELGLPFEAVELDRLGAEADVIVSITSSFSPLLMNEHVKGPTHIAAMGTDTKGKQELDPALVARARIFTDEVAQSVSIGECQHAIAAGLIREDQVGELGAVVAGDDPGRGDAEVTIFDGTGVGLQDLAVAQAVVELAKHKGVAQEVEI
notes: Recombinant enzyme expressed in E. coli BL21 AI from pET16b and purified on Ni-NTA; It was crystallised, soaked with NAD+, and is described as a homodimer (PDB ID 6QKH); also called ISRed; IRed; not shown: N-terminal His tag and Factor Xa site from vector pET16b
- binding result [2]: binds

B2: ISRed: imine reductase enzyme from Paracoccus denitrificans DSM 413, amino acid sequence SEQ ID NO: 434, expressed in E. coli (protein)
chain: MLVVAEKEIAGLMTPEAAFEAIEAVFASMARRKAYNFPVVREAIGHEDALYGFKGGFDASALVLGLKAGGYWPNNQKHNLINHQSTVFLFDPDTGRVSAAVGGNLLTALRTAAASAVSIKYLAPKGAKVLGMIGAGHQSAFQMRAAANVHRFEKVIGWNPHPEMLSRLADTAAELGLPFEAVELDRLGAEADVIVSITSSFSPLLMNEHVKGPTHIAAMGTDTKGKQELDPALVARARIFTDEVAQSVSIGECQHAIAAGLIREDQVGELGAVVAGDDPGRGDAEVTIFDGTGVGLQDLAVAQAVVELAKHKGVAQEVEI
modifications: Paracoccus denitrificans DSM 413
- reaction catalyzed ([3]; 1 mM BHA, 0.2 mM NADH, BHAD and ISRed enzymes, 30° C., potassium phosphate pH 7.5): catalyzes the conversion of iminosuccinate into L-aspartate
- vmax ([3]; iminosuccinate synthesized in situ from BHA with varying amounts of BHAD enzyme, cofactor NADH, Michaelis-Menten fit, preliminary, n=1): 270±10 U mg^−1
